B1: Peptide 210 (peptide)
peptide: YXEGTXTSDYSIXLDXKAQXEFIXYLIEGGPSSGAPPPS
modifications: Aib2; αMeF(2F)6; αMeL13; Dap16; K17((2-[2-(2-Amino-ethoxy)-ethoxy]-acetyl)2-(γGlu)-CO-(CH2)16-CO2H); Aib20; D-Glu24; C-terminal NH2
B2: Peptide 230 (peptide)
peptide: YXEGTXTSDYSIXLDHKAQXEFIXYLIEGGPSSGAPPPS
modifications: Aib2; αMeF(2F)6; αMeL13; K17((2-[2-(2-Amino-ethoxy)-ethoxy]-acetyl)2-(γGlu)-CO-(CH2)18-CO2H); Aib20; D-Glu24; C-terminal NH2
B3: Peptide 246 (peptide)
peptide: YXEGTXTSDASIXLDXKAQXAFIXXLIEGGPSSGAPPPS
modifications: not fully specified; Aib2; αMeF(2F)6; αMeL13; Orn16; K17((2-[2-(2-Amino-ethoxy)-ethoxy]-acetyl)2-(γGlu)-CO-(CH2)16-CO2H); Aib20; D-Glu24; αMeY25; C-terminal NH2
B4: Peptide 215 (peptide)
peptide: YXEGTXTSDYSIXLDEKAQXEFIXYLIEGGPSSGAPPPS
modifications: Aib2; αMeF(2F)6; αMeL13; K17((2-[2-(2-Amino-ethoxy)-ethoxy]-acetyl)2-CO-(CH2)18-CO2H); Aib20; D-Glu24; C-terminal NH2
B5: Peptide 222 (peptide)
peptide: YXEGTXTSDYSIXLDEKAQXEFIXXLIEGGPSSGAPPPS
modifications: Aib2; αMeF(2F)6; αMeL13; K17((2-[2-(2-Amino-ethoxy)-ethoxy]-acetyl)2-(γGlu)-CO-(CH2)18-CO2H); Aib20; D-Glu24; αMeY25; C-terminal NH2
B6: Peptide 244 (peptide)
peptide: YXEGTXTSDLSIXLDXKAQXAFIXXLIEGGPSSGAPPPS
modifications: not fully specified; Aib2; αMeF(2F)6; αMeL13; Orn16; K17((2-[2-(2-Amino-ethoxy)-ethoxy]-acetyl)2-(γGlu)-CO-(CH2)16-CO2H); Aib20; D-Glu24; αMeY25; C-terminal NH2
B7: Peptide 217 (peptide)
peptide: YXEGTXTSDYSIXLDXKAQXEFIXYLIEGGPSSGAPPPS
modifications: Aib2; αMeF(2F)6; αMeL13; Dab16; K17((2-[2-(2-Amino-ethoxy)-ethoxy]-acetyl)2-(γGlu)-CO-(CH2)18-CO2H); Aib20; D-Glu24; C-terminal NH2
B8: Peptide 243 (peptide)
peptide: YXEGTXTSDLSIXLDXKAQXTFIXXLIEGGPSSGAPPPS
modifications: not fully specified; Aib2; αMeF(2F)6; αMeL13; Orn16; K17((2-[2-(2-Amino-ethoxy)-ethoxy]-acetyl)2-(γGlu)-CO-(CH2)16-CO2H); Aib20; D-Glu24; αMeY25; C-terminal NH2
B9: Peptide 227 (peptide)
peptide: YXEGTXTSDYSIXLDEKAQXEFIXYLIEGGPSSGAPPPS
modifications: Aib2; αMeF6; αMeL13; K17((2-[2-(2-Amino-ethoxy)-ethoxy]-acetyl)2-(γGlu)-CO-(CH2)18-CO2H); Aib20; D-Glu24; C-terminal NH2
B10: Peptide 214 (peptide)
peptide: YXEGTXTSDYSIXLDEKAQXEFIXYLIEGGPSSGAPPPS
modifications: Aib2; αMeF(2F)6; αMeL13; K17((2-[2-(2-Amino-ethoxy)-ethoxy]-acetyl)2-CO-(CH2)16-CO2H); Aib20; D-Glu24; C-terminal NH2
B11: Peptide 223 (peptide)
peptide: YXEGTXTSDYSIXLDEKAQXEFIEXLIEGGPSSGAPPPS
modifications: Aib2; αMeF(2F)6; αMeL13; K17((2-[2-(2-Amino-ethoxy)-ethoxy]-acetyl)2-(γGlu)-CO-(CH2)18-CO2H); Aib20; αMeY25; C-terminal NH2
B12: Peptide 241 (peptide)
peptide: YXEGTXTSDVSIXLDXKAQXTFIXXLIEGGPSSGAPPPS
modifications: not fully specified; Aib2; αMeF(2F)6; αMeL13; Orn16; K17((2-[2-(2-Amino-ethoxy)-ethoxy]-acetyl)2-(γGlu)-CO-(CH2)16-CO2H); Aib20; D-Glu24; αMeY25; C-terminal NH2
B13: Peptide 224 (peptide)
peptide: YXEGTXTSDYSIXLDEKAQXEFIXYLIEGGPSSGAPPPS
modifications: Aib2; αMeF(2F)6; Aib13; K17((2-[2-(2-Amino-ethoxy)-ethoxy]-acetyl)2-(γGlu)-CO-(CH2)18-CO2H); Aib20; D-Glu24; C-terminal NH2
B14: Peptide 242 (peptide)
peptide: YXEGTXTSDVSIXLDXKAQXAFIXXLIEGGPSSGAPPPS
modifications: not fully specified; Aib2; αMeF(2F)6; αMeL13; Orn16; K17((2-[2-(2-Amino-ethoxy)-ethoxy]-acetyl)2-(γGlu)-CO-(CH2)16-CO2H); Aib20; D-Glu24; αMeY25; C-terminal NH2
B15: Peptide 233 (peptide)
peptide: YXEGTXTSDXSIXLDXKAQXEFIXYLIEGGPSSGAPPPS
modifications: not fully specified; Aib2; αMeF(2F)6; 4Pal10; αMeL13; Dab16; K17((2-[2-(2-Amino-ethoxy)-ethoxy]-acetyl)2-(γGlu)-CO-(CH2)16-CO2H); Aib20; D-Glu24; C-terminal NH2

Biological target: human GLP-1 receptor (human, UniProt P43220 24-463)
Test: cell-based or functional assay

Binder	hGLPIR cAMP EC50 ratio
B1	1.03
B2	0.599
B3	2.56
B4	0.813
B5	1.55
B6	1.29
B7	1.14
B8	1.22
B9	1.07
B10	1.74
B11	0.962
B12	1.89
B13	1.06
B14	1.96
B15	0.535
